In assay [1] the target is chimeric human MSLN-R3 / chicken MSLN-R1-2 protein on HEK293T cells (clone A5) (chicken; human). Put plainly: FACS, HEK293T-hR3/chickR1-2-A5 cells, antibody 20 nM.
Assay [2] concerns the target human MSLN full-length protein, recombinant, on CHO-K1 or HEK293T cells (human) (UniProt Q13421). Description: competitive FACS on CHO-K1-human MSLN-2C8 cells vs Biotin-Tab131; competitor at 0.064 nM.
Assay [3] shares this target. Description: competitive FACS on CHO-K1-human MSLN-2C8 cells vs Biotin-Tab142; competitor at 20 nM.
The target is the same in assay [4]. Put plainly: FACS, HEK293T-hMSLN-B8 cells, antibody 0.2 nM. Background: In flow cytometry, cells or beads pass a laser one at a time.
The target is the same in assay [5]. Description: competitive FACS on CHO-K1-human MSLN-2C8 cells vs Biotin-Tab131; competitor at 40 nM.
Assay [6] has the same target. Description: competitive FACS on CHO-K1-human MSLN-2C8 cells vs Biotin-Tab142; competitor at 0.00256 nM.
The target of assay [7] is human MSLN full-length protein on transfected cells (CHO-K1-hMSLN clones 2C8, 2D11, 2C5; HEK293T-hMSLN clones B8, 2A4, 2A7) (human) (UniProt Q13421). Put plainly: FACS, CHO-K1-hMSLN-2C8 cells, antibody 0.0064 nM.
human MSLN full-length protein on transfected cells (CHO-K1-hMSLN clones 2C8, 2D11, 2C5; HEK293T-hMSLN clones B8, 2A4, 2A7) (human), sequence (Q13421 other isoform, or with tags, fused parts or gaps limits assumed): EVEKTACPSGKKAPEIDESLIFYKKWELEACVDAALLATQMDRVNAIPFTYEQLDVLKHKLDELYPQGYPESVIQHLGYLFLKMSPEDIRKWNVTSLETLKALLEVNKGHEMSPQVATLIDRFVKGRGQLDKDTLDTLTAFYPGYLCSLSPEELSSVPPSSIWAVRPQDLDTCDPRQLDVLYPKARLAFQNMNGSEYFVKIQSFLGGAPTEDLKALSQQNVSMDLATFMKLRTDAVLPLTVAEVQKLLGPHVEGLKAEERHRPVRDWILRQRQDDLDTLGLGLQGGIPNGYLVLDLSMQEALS

human MSLN full-length protein, recombinant, on CHO-K1 or HEK293T cells (human), sequence (Q13421 other isoform, or with tags, fused parts or gaps limits assumed): as above
chimeric human MSLN-R3 / chicken MSLN-R1-2 protein on HEK293T cells (clone A5) (chicken; human), sequence (Q13421 495-614, change not shown): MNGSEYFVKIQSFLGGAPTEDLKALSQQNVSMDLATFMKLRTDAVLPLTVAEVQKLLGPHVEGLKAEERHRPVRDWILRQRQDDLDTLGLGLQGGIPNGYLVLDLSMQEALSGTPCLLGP

With hIgG1 (antibody), the MFI in assay [1] is 74; in assay [4], 65. Moreover, the MFI of Biotin-Tab131 in assay [2] and in assay [5] was 12500 throughout. Further, the MFI of Biotin-Tab142 in assay [3] was 42600; in assay [6], 24300. The substance further gave an FACS signal (MFI) in assay [7] of 65.

For the origin of these results see US20240124563A1.
